Data as given in patent US20260056193A1 (SEER, published 2026).
No end group written: not given here.

What was measured:
Experiment in all cases: LC-MS/MS of proteins captured from pooled plasma by peptide-modified nanoparticles
A0A075B6K0 = biological target: T1, A0A075B6K0
T1 construct: Protein found in pooled plasma by LC-MS/MS; only the UniProt ID is printed
Experimental: (§1) Provided herein are proteins that are captured by surfaces modified with peptides described herein. Briefly, surfaces are modified with the 10K-peptide-MaganinII. Pooled plasma samples containing proteins and the modified surfaces are combined and the surfaces are isolated and captured proteins are analyzed by liquid chromatography tandem mass spectrometry. The nanoparticle prepared in Example 5 was used and selected proteins that include those in Table 9. These proteins were captured by the peptide-modified surface, but not surfaces without peptide modification.

A0A0C4DH33 = biological target: T2, A0A0C4DH33
T2 construct: Protein found in pooled plasma by LC-MS/MS; only the UniProt ID is printed
T2 sequence (A0A0C4DH33 20-117): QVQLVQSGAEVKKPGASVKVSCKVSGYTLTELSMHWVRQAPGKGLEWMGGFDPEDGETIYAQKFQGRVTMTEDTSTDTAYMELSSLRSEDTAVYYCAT
Experimental: as §1

A0A0C4DGL1 = biological target: T3, A0A0C4DGL1
T3 construct: Protein found in pooled plasma by LC-MS/MS; only the UniProt ID is printed
Experimental: as §1

F8W7Q4 = biological target: T4, F8W7Q4
T4 construct: Protein found in pooled plasma by LC-MS/MS; only the UniProt ID is printed
Experimental: as §1

E7EQ47 = biological target: T5, E7EQ47
T5 construct: Protein found in pooled plasma by LC-MS/MS; only the UniProt ID is printed
Experimental: as §1

T1 sequence (A0A075B6K0 20-115): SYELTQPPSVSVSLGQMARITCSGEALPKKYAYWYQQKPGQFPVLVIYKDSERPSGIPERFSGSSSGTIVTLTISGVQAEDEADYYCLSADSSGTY

B1: 10K peptide-MaganinII coupled to Surface 428 nanoparticle (Surface 428-MaganinII) (peptide)
peptide: KKKKKKKKKKGIGKFLHSAKKFGKAFVGEIMNS
modifications: not fully specified; also: coupled through Sulfo-SMCC (maleimide) to thiols of Surface 428 nanoparticle, amine carrying SMCC not given here
notes: Many copies of the peptide stand on one nanoparticle; also called SMCC-MagaininII
A0A075B6K0
  Median Intensity: 3.81
A0A0C4DH33
  Median Intensity: 3.89
A0A0C4DGL1
  Median Intensity: 3.62
F8W7Q4
  Median Intensity: 3.55
E7EQ47
  Median Intensity: 3.5
